The results in this text go back to US20090291081A1 (AbbVie / Abbott, published 2009).

By IC50 is commonly meant the concentration that inhibits the measured activity by half. High values mean lower potency, low ones higher potency.

B1: ABT2-35 (other)
VH: EVQLLESGGGLVQPGGSLRLSCAASGFTFGEYDMAWVRQAPGKGLEWVSVIYAWGTSTYYADSVKGRFTISRDNSKNTLYLQMNSLRAEDTAVYYCAKMGGGLVSLPQSKFDYWGQGTLVTVSS
B2: ABT2-43 (other)
VL: DIQMTQSPSSLSASVGDRVTITCRASQNIDTYLTWYQQKPGKAPRLLIYGASTLQSGVPSRFSGSGSGTDFTLTISSLQPEDFATYYCQQRAYYPTTFGQGTKVEIKR
B3: ABT2-6 (other)
VL: DIQMTQSPSSLSASVGDRVTITCRASQSIGLLLTWYQQKPGKAPKLLIYMASQLQSGVPSRFSGSGSGTDFTLTISSLQPEDFATYYCQQWHRPPSTFGQGTKVEIKR
B4: ABT2-8 (other)
VL: B3 VL with G30K, L31S, L32M, T34A, Q53N, W91T, H92I, R93V, P94K
B5: ABT2-7 (other)
VL: B3 VL with G30K, L31S, L32G, T34N
B6: ABT2-64 (other)
VH: EVQLLESGGGLVQPGGSLRLSCAASGFTFDDYGMGWVRQAPGKGLEWVSLIYPFGGGTYYADSVKGRFTISRDNSKNTLYLQMNSLRAEDTAVYYCAKVTQTGKFDYWGQGTLVTVSS
B7: ABT2-39 (other)
VH: EVQLLESGGGLVQPGGSLRLSCAASGFTFRAYDMGWVRQAPGKGLEWVSVIYAWGTSTYYADSVKGRFTISRDNSKNTLYLQMNSLRAEDTAVYYCAKIDRDASLPTGEGFDYWGQGTLVTVSS
B8: ABT2-11 (other)
VH: EVQLLESGGGLVQPGGSLRLSCAASGFTFDNYSMTWVRQAPGKGLEWVSAISGSGGSTYYADSVKGRFTISRDNSKNTLYLQMNSLRAEDTAVYYCAKCIDRLPCLFDYWGQGTLVTVSS
B9: ABT2-10 (other)
VH: EVQLLESGGGLVQPGGSLRLSCTASGFTFNRYNMAWARQAPGKGLEWVSEIDLKGSQTYYADSVKGRFTISRDNSKNTLYLQMNSLRAEDTAVYYCAKVSISAYHMFDYWGQGTLVTVSS
B10: ABT2-108 (other)
VH: EVQLLESGGGLVQPGGSLRLSCAASGFTFAEYTMMWVRQAPGKGLEWVSRIGQDGKNTYYADSVKGRFTISRDNSKNTLYLQMNSLRAEDTAVYYCAKYTGRVGVHHLFDYWGQGTLVTSS
B11: ABT2-65-149 (other)
VH: EVQLLESGGGLVQPGGSLRLSCAASGFTFEDYQMGWVRQAPGKGLEWVSSISAMGNRTYYADSVKGRFTISRDDSKNTLYLQMNSLRAEDTAVYYCAENLVRVDRRRWMFDYWGQGTLVTVSS
notes: VH dAb
B12: ABT2-65-171 (other)
VH: B11 VH with E98Q, V103L, D104N, R106S, R107Q
notes: VH dAb
B13: ABT2-65-152 (other)
VH: B11 VH with V103W, D104K, R105S, R106S, R107A
notes: VH dAb
B14: ABT2-65-141 (other)
VH: B11 VH with V103I, D104K, R105Q, R106T, R107K
notes: VH dAb
B15: ABT2-65-135 (other)
VH: B11 VH with V103I, D104K, R105K, R106M, R107K
notes: VH dAb
B16: ABT2-65-159 (other)
VH: B11 VH with D104S, R105K, R106A
notes: VH dAb
B17: ABT2-65-143 (other)
VH: B11 VH with V103L, D104Q, R106D
notes: VH dAb
B18: ABT2-65-167 (other)
VH: B11 VH with E98Q, V103W, D104K, R105K, R106N, R107E
notes: VH dAb
B19: ABT2-65-156 (other)
VH: B11 VH with E98Q, V103I, D104G, R106N, R107K
notes: VH dAb
B20: ABT2-65-170 (other)
VH: B11 VH with D104L, R105L, R106N, R107K
notes: VH dAb
B21: ABT2-65-139 (other)
VH: B11 VH with E98Q, D104R, R105V
notes: VH dAb
B22: ABT2-65-174 (other)
VH: B11 VH with E98Q, V103F, D104K, R105K, R106T, R107Q
notes: VH dAb
B23: ABT2-65-155 (other)
VH: B11 VH with E98Q, R102L, D104Q, R107K
notes: VH dAb
B24: ABT2-65-177 (other)
VH: B11 VH with E98Q, V103F, D104K, R105V, R106L, R107Q
notes: VH dAb
B25: ABT2-65-175 (other)
VH: B11 VH with V103I, D104A, R105G, R106D
notes: VH dAb
B26: ABT2-65-144 (other)
VH: B11 VH with V103I, D104S, R105K, R106K, R107Q
notes: VH dAb
B27: ABT2-65-173 (other)
VH: B11 VH with E98Q, V103F, D104R, R105A, R106K, R107E
notes: VH dAb
B28: ABT2-65-176 (other)
VH: B11 VH with N56S, R102K, D104A, R106G
notes: VH dAb
B29: ABT2-65-146 (other)
VH: B11 VH with V103T, D104M, R105K, R107K
notes: VH dAb
B30: ABT2-65-138 (other)
VH: B11 VH with D104T, R105A, R107K
notes: VH dAb
B31: ABT2-65-133 (other)
VH: B11 VH with R102H, V103W, D104K, R106G, R107G
notes: VH dAb
B32: ABT2-65-137 (other)
VH: B11 VH with V103T, D104A, R105K
notes: VH dAb
B33: ABT2-65-158 (other)
VH: B11 VH with E98Q, R102K, V103W, D104K, R106D, R107F
notes: VH dAb
B34: ABT2-65-172 (other)
VH: B11 VH with V103W, D104K, R105K, R106G, R107S
notes: VH dAb
B35: ABT2-65-148 (other)
VH: B11 VH with E98Q, V103L, D104G, R105S, R106K
notes: VH dAb
B36: ABT2-65-145 (other)
VH: B11 VH with V103I, D104Q, R105K, R106V, R107K
notes: VH dAb
B37: ABT2-65-169 (other)
VH: B11 VH with R102N, V103W, D104R, R106G, R107S
notes: VH dAb
B38: ABT2-65-168 (other)
VH: B11 VH with E98Q, V103W, D104K, R105L, R106E, R107S
notes: VH dAb
B39: ABT2-65-151 (other)
VH: B11 VH with V103W, D104R, R105K, R106H, R107A
notes: VH dAb
B40: ABT2-65-10 (other)
VH: VQLSESGGGLVQPGGSLRLSCAASGFTFTEYNMGWVRQAPGKGLEWVSSISAMGNRTYYADSVKGRFTISRDDSKNTLYLQMNSLRAEDTAVYYCANNLVRTQSKMWMFDYWGQGTLVTVSS
notes: VH dAb
B41: ABT2-42 (other)
VL: DIQMTQSPSSLSASVGDRVTITCRASQYIEKWLTWYQQKPGKAPTLLIYRGSLLQSGVPSRFSGSGSGTDFTLTISSLQPEDFATYYCQQTEYWPFTFGQGTKVEIKR
B42: ABT2-46 (other)
VL: B41 VL with Y28S, E30I, K31E, T34S, T45K, G51T, L53V, T91N, Y93F
B43: ABT2-108/ABT1-141-25 hu IgG1/K wt (bispecific antibody, V domains shown)
VH: B10 VH
VL: DIQMTQSPSSLSASVGDRVTITCRASQWIQKQLAWYQQKPGKAPKLLIYSSSYLQSGVPSRFSGSGSGTDFTLTISSLQPEDFATYYCQQHLRVPMTFGQGTKVEIKR
B44: ABT2-65-17/ABT1-122-511 hu IgG1/K wt (bispecific antibody, V domains shown)
VH: B11 VH with A23V, E98Q, V103L, D104G, R106S
VL: DIQMTQSPSSLSASVGDRVTITCRASQPIWTELNWYQQKPGKAPKLLIYGSSSLQRGVPSRFSGSGSGTDFTLTISSLQPEDFATYYCKQFAYFPATFGQGTKVEIKR
B45: ABT2-108-620x/ABT1-122-513 huIgG1/K w (bispecific antibody, V domains shown)
VH: EVQLLESGGGLVQPGGSLRLSCAASGFTFAEESWMWVRQAPGKGLEWVSRIGQDGKNTYYREDVKGRFTISRDNSKNTLYLQMNSLRAEDTAVYYCAKYTGRIMGHHLFDYWGQGTLVTVSS
VL: B44 VL with S52G, L54R

Numbering of substitutions follows the chain as printed. Values joined by “and” are separate entries in the source; they are usually repeats but may differ in a detail not shown here. Identical values can stand only once.

The target in the first experiment is T1, human IL-1β (human, UniProt P01584 117-269). Put plainly: cell-based or functional assay.
On to B1, for which the “ND50” value was greater than 10 µM.
Turning to B2, the “ND50” value is greater than 10 µM.
As for B3, the “ND50” value was greater than 20 µM.
With B4, the “ND50” value is greater than 20 µM.
Take B5: the “ND50” value is greater than 20 µM.
The same measure, in the same setting: to B6 belongs greater than 10 µM; to B7, greater than 10 µM.
For B8, the “ND50” value is greater than 10 µM.
Consider B9, for which the “ND50” value was 6 µM.

The target of the next experiment is T1, human IL-1β. Put plainly: IC50 column of Table 63; receptor binding assay presumed.
Molecule B10 showed an IC50 of 70 nM.
Same read-out and setting: to B11 belongs 4 nM; to B12, 7.5 nM.
Molecule B13 came in with an IC50 of 5 nM.
The molecule B14 showed an IC50 of 5 nM.
B15: the IC50 was found to be 5 nM.
For the molecule B16, the IC50 was 5 nM.
On the same count and under the same terms, to B17 belongs 5 nM; to B18, 30 nM.
Still for that read-out and setting: the value for B19 was 5 nM.
With B20, the half-maximal inhibitory concentration (IC50) was determined as 10 nM.
Same read-out and setting: to B21 belongs 4 nM.
On the same count and under the same terms, the value for B22 was 10 nM; that for B23 was 5 nM.
With B24, the IC50 is 20 nM.
Molecule B25 came in with a 50% inhibitory concentration (IC50) of 10 nM.
In the case of B26, the IC50 is 6 nM.
On to B27, for which the IC50 is 30 nM.
Regarding B28, the IC50 was found to be 5 nM.
Regarding B29, the IC50 came out at 6 nM.
B30 showed an IC50 of 5 nM.
The molecule B31 gave an IC50 of 30 nM.
For the molecule B32, the IC50 amounted to 5 nM.
Turning to B33, the IC50 turned out to be 5 nM.
In turn, B34 came in with an IC50 of 6 nM.
Molecule B35 registered an IC50 of 4 nM.
Regarding B36, the IC50 was found to be 5 nM.
With B37, the IC50 was found to be 9 nM.
On the same count and under the same terms, the value for B38 was 30 nM; that for B39 was 6 nM.
As to B40, the IC50 came to 20 nM.
The same measure, in the same setting: the value for B41 was 770 nM.
Consider B42, for which the IC50 amounted to 390 nM.

The target of a further experiment is human IL-1β (human, UniProt P01584 117-269). The experiment in a line: cell-based or functional assay.
Regarding B43, the “IL-1β IC50” value was 150 nM.
With B44, the “IL-1β IC50” value is 0.1 nM and 0.16 nM.
The same measure, in the same setting: to B45 belongs 0.01 nM and 0.009 nM.
